# Data: article PMC2887783 (2010)
# B1: AIP4 PRR/WWI-IV 155-486 (protein)
# chain: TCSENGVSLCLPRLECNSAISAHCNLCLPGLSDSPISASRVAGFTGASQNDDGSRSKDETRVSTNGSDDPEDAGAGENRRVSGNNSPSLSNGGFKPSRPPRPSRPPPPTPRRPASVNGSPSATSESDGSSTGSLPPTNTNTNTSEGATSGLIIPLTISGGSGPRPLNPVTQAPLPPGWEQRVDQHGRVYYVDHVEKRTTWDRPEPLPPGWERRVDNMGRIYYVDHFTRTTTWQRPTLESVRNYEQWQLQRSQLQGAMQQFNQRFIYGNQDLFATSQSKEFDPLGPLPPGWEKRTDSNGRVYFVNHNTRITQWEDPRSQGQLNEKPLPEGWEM
# Experiments:
# AIP4 HECT domain HECT = AIP4 HECT domain HECT (Homo sapiens, UniProt Q96J02); assay: ELISA
# AIP4 PRR/WWI-IV 155-486 [1] = target: B1; assay: competition ELISA
# AIP4 PRR/WWI-IV 155-486 [2] = target: B1; assay: ELISA
# AIP4 PRR/WWI-IV 155-486 [3] = target: B1; assay: competition ELISA; remark: listed apart in the source
# AIP4 PRR/WWI-IV 155-486, sequence (Q96J02 155-486): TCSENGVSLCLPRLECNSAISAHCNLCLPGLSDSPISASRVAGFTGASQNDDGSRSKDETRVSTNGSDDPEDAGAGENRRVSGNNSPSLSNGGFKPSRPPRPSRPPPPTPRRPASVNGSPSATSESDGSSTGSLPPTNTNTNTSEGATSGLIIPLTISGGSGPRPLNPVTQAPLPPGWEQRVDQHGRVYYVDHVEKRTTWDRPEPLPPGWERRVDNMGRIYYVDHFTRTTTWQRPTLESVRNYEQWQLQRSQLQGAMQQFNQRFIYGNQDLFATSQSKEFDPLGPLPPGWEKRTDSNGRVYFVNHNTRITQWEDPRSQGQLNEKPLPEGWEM
# AIP4 HECT domain HECT, sequence (Q96J02 566-903): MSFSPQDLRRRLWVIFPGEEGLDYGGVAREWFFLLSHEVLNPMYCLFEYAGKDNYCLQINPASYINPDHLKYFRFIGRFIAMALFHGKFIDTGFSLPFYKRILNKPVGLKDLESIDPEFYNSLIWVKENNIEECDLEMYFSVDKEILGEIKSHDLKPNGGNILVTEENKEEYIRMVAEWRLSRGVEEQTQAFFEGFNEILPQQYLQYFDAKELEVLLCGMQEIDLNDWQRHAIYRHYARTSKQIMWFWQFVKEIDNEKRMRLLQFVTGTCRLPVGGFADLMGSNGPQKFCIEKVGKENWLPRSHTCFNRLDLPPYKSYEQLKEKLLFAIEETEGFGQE
Binder,Kd (AIP4 HECT domain HECT),Ki (AIP4 PRR/WWI-IV 155-486 [1]),Kd (AIP4 PRR/WWI-IV 155-486 [2]),IC50 (AIP4 PRR/WWI-IV 155-486 [3])
B1,2000 nM,,,
spartin 155-367 (protein) APASLSLPSQSCPAEAPPAYTPQAAEGHYTVSYGTDSGEFSSVGEEFYRNHSQPPPLETLGLDADELILIPNGVQIFFVNPAGEVSAPSYPGYLRIVRFLDNSLDTVLNRPPGFLQVCDWLYPLVPDRSPVLKCTAGAYMFPDTMLQAAGCFVGVVLSSELPEDDRELFEDLLRQMSDLRLQANWNRAEEENEFQIPGRTRPSSDQLKEASGT,,210 nM,340 nM,560 nM
